{
  "source": "paper PMC5737894",
  "key": {"DRB4": {"biological_target": "T1, DRB4 (Arabidopsis thaliana, UniProt Q8H1D4 1-355)", "T1 sequence": "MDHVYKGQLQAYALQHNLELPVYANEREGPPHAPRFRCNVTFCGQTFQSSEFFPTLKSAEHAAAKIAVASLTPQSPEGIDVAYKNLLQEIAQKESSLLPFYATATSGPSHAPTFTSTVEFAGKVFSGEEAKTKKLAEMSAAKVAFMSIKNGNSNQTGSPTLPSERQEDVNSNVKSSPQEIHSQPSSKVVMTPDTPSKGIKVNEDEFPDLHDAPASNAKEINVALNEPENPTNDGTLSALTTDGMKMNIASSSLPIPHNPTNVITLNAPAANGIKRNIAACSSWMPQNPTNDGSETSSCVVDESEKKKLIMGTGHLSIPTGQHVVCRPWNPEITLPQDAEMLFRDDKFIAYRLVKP", "assay": "ITC"}, "DRB4C": {"biological_target": "T2, DRB4C (Arabidopsis thaliana, UniProt Q8H1D4 154-355)", "T2 sequence": "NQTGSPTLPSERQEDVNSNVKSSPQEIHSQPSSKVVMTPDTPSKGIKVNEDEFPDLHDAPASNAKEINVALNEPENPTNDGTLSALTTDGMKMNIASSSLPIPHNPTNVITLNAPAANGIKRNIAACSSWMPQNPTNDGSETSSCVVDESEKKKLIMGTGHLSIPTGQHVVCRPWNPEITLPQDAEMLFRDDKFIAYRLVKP", "assay": "EMSA"}, "DRB4D1D2 H32A/K133A": {"biological_target": "T3, DRB4D1D2 H32A/K133A (Arabidopsis thaliana, UniProt Q8H1D4 1-153, H32A;K133A)", "T3 sequence": "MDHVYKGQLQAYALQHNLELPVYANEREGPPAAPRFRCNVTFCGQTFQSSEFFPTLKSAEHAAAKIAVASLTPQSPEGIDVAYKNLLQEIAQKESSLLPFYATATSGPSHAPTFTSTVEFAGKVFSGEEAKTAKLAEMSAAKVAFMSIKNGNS", "assay": "EMSA"}, "DRB4D1D2": {"biological_target": "T4, DRB4D1D2 (Arabidopsis thaliana, UniProt Q8H1D4 1-153)", "T4 sequence": "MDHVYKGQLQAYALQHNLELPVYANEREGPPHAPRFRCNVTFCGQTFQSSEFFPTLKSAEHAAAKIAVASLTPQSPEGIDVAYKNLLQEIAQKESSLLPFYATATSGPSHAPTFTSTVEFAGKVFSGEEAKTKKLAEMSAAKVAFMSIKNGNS", "assay": "ITC"}, "DRB4 H32A/K133A": {"biological_target": "T5, DRB4 H32A/K133A (Arabidopsis thaliana, UniProt Q8H1D4 1-355, H32A;K133A)", "T5 sequence": "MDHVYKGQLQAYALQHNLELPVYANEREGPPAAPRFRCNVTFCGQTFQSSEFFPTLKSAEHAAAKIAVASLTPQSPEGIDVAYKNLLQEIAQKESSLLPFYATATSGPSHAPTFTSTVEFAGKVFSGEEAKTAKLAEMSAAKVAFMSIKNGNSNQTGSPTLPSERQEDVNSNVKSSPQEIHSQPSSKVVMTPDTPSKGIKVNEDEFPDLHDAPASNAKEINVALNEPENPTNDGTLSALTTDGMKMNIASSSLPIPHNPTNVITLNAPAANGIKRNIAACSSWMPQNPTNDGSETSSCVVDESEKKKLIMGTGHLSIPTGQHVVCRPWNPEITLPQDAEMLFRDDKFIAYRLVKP", "assay": "EMSA"}, "DRB4D2D1": {"biological_target": "T6, DRB4D2D1 (Arabidopsis thaliana, UniProt Q8H1D4 1-3+82-150+73-81+4-72, internal_change)", "T6 sequence": "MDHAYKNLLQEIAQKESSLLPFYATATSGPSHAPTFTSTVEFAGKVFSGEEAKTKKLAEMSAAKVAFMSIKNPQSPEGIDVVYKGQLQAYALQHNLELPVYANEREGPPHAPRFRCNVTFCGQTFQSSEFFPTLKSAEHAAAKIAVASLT", "assay": "ITC"}},
  "data": [
    {"binder": "80 bp dsRNA (dsRNA) RNA 1: GGGUGCUGUUUCUCGUGUUCGUGUUCGUUUCUCUUCUCUUGUCCUUGUUCUGUUCUCCUUUGUUCGUUCCUGUUCCCCUU RNA 2: AAGGGGAACAGGAACGAACAAAGGAGAACAGAACAAGGACAAGAGAAGAGAAACGAACACGAACACGAGAAACAGCACCC", "values": [
      {"measurement": "Kd", "setting": "DRB4", "result": "120 ± 40", "unit": "nM"},
      {"measurement": "binding result", "setting": "DRB4C", "result": "no binding"},
      {"measurement": "binding result", "setting": "DRB4D1D2 H32A/K133A", "result": "no binding"},
      {"measurement": "Kd", "setting": "DRB4D1D2", "result": "400 ± 30", "unit": "nM"},
      {"measurement": "binding result", "setting": "DRB4 H32A/K133A", "result": "no binding"},
      {"measurement": "Kd", "setting": "DRB4D2D1", "result": "4000 ± 400", "unit": "nM"}
    ]}
  ]
}
